Common to all, as to experiment: ELISA, antibody coated, LAG-3 D12.mFc mutant in supernatant, normalised to control mutants
(In an ELISA, binding on a coated surface is turned into a signal by an enzyme label.)

For experiment [1], the target named is T1, human LAG-3-ECD.D12.mFc mutant L42A (human, UniProt P18627 37-252).
T1 construct: Alanine scanning mutant; construct limits as for m26
T1 chain: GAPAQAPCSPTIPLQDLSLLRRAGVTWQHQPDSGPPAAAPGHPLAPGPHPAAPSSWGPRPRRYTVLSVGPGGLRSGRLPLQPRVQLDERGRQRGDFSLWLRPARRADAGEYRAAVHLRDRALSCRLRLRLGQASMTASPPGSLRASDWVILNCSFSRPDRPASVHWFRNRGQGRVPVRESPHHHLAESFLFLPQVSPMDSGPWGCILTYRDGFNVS
The procedure:
(§1) For ELISA binding assay, the antibody 1.53.3-uAb-IgG4k or 3.40.19-uAb-hIgG4L (2 μg/mL) was coated in plates. After interacting with the supernatant that contains quantified LAG-3 mutants or human LAG-3-ECD.D12.mFc protein, HRP conjugated anti-mFc antibody (1:5000; Bethyl, USA) was added as a detection antibody. Absorbance was normalized according to the average absorbance of control mutants. After setting an additional cutoff to the binding fold change (<0.75), the final determined epitope residues were identified.

For experiment [2], the target named is T2, human LAG-3-ECD.D12.mFc mutant A139G (human, UniProt P18627 37-252).
T2 construct: construct limits as for m26
T2 chain: T1 chain with A6L, A103G
Here is the method: as §1

Experiment [3] addresses T3, human LAG-3-ECD.D12.mFc mutant Y147A (human, UniProt P18627 37-252).
T3 construct: Alanine scanning mutant; construct limits as for m26
T3 chain: T1 chain with A6L, Y111A
Here is the method: as §1

The target of experiment [4] is T4, human LAG-3-ECD.D12.mFc mutant L164A (human, UniProt P18627 37-252).
T4 construct: Alanine scanning mutant; construct limits as for m26
T4 chain: T1 chain with A6L, L128A
Here is the method: as §1

Experiment [5] has as its target T5, human LAG-3-ECD.D12.mFc mutant D143A (human, UniProt P18627 37-252).
T5 construct: Alanine scanning mutant; construct limits as for m26
T5 chain: T1 chain with A6L, D107A
The procedure:
as §1

The target in experiment [6] is T6, human LAG-3-ECD.D12.mFc mutant L122A (human, UniProt P18627 37-252).
T6 construct: Alanine scanning mutant; construct limits as for m26
T6 chain: T1 chain with A6L, L86A
Here is the method: as §1

Experiment [7] deals with T7, human LAG-3-ECD.D12.mFc mutant G37A (human, UniProt P18627 38-252).
T7 construct: Alanine scanning mutant; construct limits as for m26
T7 sequence: T1 chain with G1A, A6L
Here is the method: as §1

Experiment [8] concerns the target T8, human LAG-3-ECD.D12.mFc mutant V61A (human, UniProt P18627 37-252).
T8 construct: Alanine scanning mutant; construct limits as for m26
T8 chain: T1 chain with A6L, V25A
The procedure:
as §1

Positions count from the first letter of the chain named.

The text below walks through data of patent US20200407442A1 (WUXI BIOLOGICS IRELAND, published 2020).

B1: 1.53.3-uAb-IgG4k (antibody, V domains shown)
VH: QVQLQQWGAGLLKPSETLSLTCGVYGGSFSGYYWSWIRQPPGMGLEWIGEINHRGNTNYNPSLKSRVTISEDTSKNQFSLRLSSVTAADTAVYFCTRGEDYSDYDYYGDFWGQGTLVTVSS
VL: EIVLTQSPATLSLSQGERATLSCRASQSISSYLAWYQQKPGQAPRLLIYAASNRATGIPARFSGSGSGTDFTLTISSLEPEDFAIYYCQQRSNWPLTFGGGTKVEIK
notes: Fully human antibody from OMT rats; IgG4 kappa by its name
With B1, the “Fold Change” value in experiment [1] is 0.624; in experiment [2] it was 0.708; in experiment [3], 0.637; in experiment [4], 0.586; in experiment [5], 0.671; in experiment [6] it was 0.607. Further, the “Fold Change” value in experiment [7] was 0.558; in experiment [8], 0.637.

B2: 3.40.19-uAb-IgG4L (antibody, V domains shown)
VH: QLQLQESGPGLVKPSETLSLTCTVSGDSISSTSYYWGWIRQPPGKGLEWIGSFYYSGSTYYNPSLKSRVTISVDTSKNQFSLKLNSVTAADTAVYYCARMQLWSYDVDVWGQGTTVTVSS
VL: QSALTQPASVSGSPGQSITISCTGTSSDVGGYDYVAWYQQHPGKVPKLMIYDVSERPSGVSNRFSGSKSGNTASLTISGLQAEDEADYYCSSYTSTTTLVVFGGGTKLSVL
notes: Fully human antibody from OMT rats; IgG4 lambda by its name; also called 3.40.19-uAb-hIgG4L
For B2, the “Fold Change” value is 0.306 in experiment [1]; 0.368 in experiment [2]; 0.19 in experiment [3]; 0.278 in experiment [4]; 0.529 in experiment [5]; 0.391 in experiment [6]. Further, the “Fold Change” value in experiment [7] stood at 0.284; in experiment [8] it was 0.514.
